Data: US20060257938A1, “Method of screening for drugs that block ligand binding to a lipid binding protein” (priority 2005, published 2006)
Positions count from the first letter of the chain named.

B1: 126E, 72A (protein, listed as Rattus norvegicus)
chain: AFDGTWKVDRNENYEKFMEKMGINVVKRKLGAHDNLKLTITQEGNKFTVKESSNFRNIDVVFELGVDFAYSAADGTELTGTWTMEGNKLVGKFKRVDNGKELIAVREISGNELIQTYTYEGVEAKEIFKKE
modifications: PEPTIDE (1)...(131) wild-type rat intestinal fatty acid binding protein
B2: 126V, 72A (protein, listed as Rattus norvegicus)
chain: B1 chain with E126V
modifications: PEPTIDE (1)...(131) wild-type rat intestinal fatty acid binding protein
B3: 126I, 72A (protein, listed as Rattus norvegicus)
chain: B1 chain with E126I
modifications: PEPTIDE (1)...(131) wild-type rat intestinal fatty acid binding protein
B4: 126H, 72A (protein, listed as Rattus norvegicus)
chain: B1 chain with E126H
modifications: PEPTIDE (1)...(131) wild-type rat intestinal fatty acid binding protein
B5: 126F, 72A (protein, listed as Rattus norvegicus)
chain: B1 chain with E126F
modifications: PEPTIDE (1)...(131) wild-type rat intestinal fatty acid binding protein
B6: 126M, 72A (protein, listed as Rattus norvegicus)
chain: B1 chain with E126M
modifications: PEPTIDE (1)...(131) wild-type rat intestinal fatty acid binding protein
B7: 14D, 72A (protein, listed as Rattus norvegicus)
chain: B1 chain with Y14D, E126R
modifications: PEPTIDE (1)...(131) wild-type rat intestinal fatty acid binding protein
B8: 126L, 72A (protein, listed as Rattus norvegicus)
chain: B1 chain with E126L
modifications: PEPTIDE (1)...(131) wild-type rat intestinal fatty acid binding protein
B9: 14A, 72A (protein, listed as Rattus norvegicus)
chain: B1 chain with Y14A, E126R
modifications: PEPTIDE (1)...(131) wild-type rat intestinal fatty acid binding protein

Experiment: Probe fluorescence ratio response to linoleic acid relative to ADIFAB2
Format: binding
Conditions: response relative to ADIFAB2
Procedure, shortened: (§1)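 Each fatty acid's response was expressed relative to ADIFAB2, the rI-FABP-L72A probe, as ΔR/ΔRreference. ΔR is the change in the background-corrected two-wavelength intensity ratio R=Fλ1/Fλ2 from its analyte-free baseline R0. Emission was read near about 420-480 nm for unbound and about 495-580 nm for FFA-bound probe.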

| Molecule | DR/DR LA |
| --- | --- |
| B1 | 0.34 |
| B2 | 0.45 |
| B3 | 0.43 |
| B4 | 0.46 |
| B5 | 0.51 |
| B6 | 0.31 |
| B7 | 0.53 |
| B8 | 0.64 |
| B9 | 0.56 |

Experiment: Probe fluorescence ratio response to linolenic acid relative to ADIFAB2
Format: binding
Conditions: response relative to ADIFAB2
Procedure, shortened: as §1

| Molecule | DR/DR LNA |
| --- | --- |
| B1 | 0.32 |
| B2 | 0.42 |
| B3 | 0.43 |
| B4 | 0.46 |
| B5 | 0.53 |
| B6 | 0.28 |
| B7 | 0.51 |
| B8 | 0.66 |
| B9 | 0.56 |

Experiment: Probe fluorescence ratio response to arachidonic acid relative to ADIFAB2
Format: binding
Conditions: arachidonic acid; response relative to ADIFAB2
Procedure, shortened: as §1

| Molecule | DR/DR AA |
| --- | --- |
| B1 | 0.25 |
| B2 | 0.42 |
| B3 | 0.45 |
| B4 | 0.20 |
| B5 | 0.52 |
| B6 | 0.32 |
| B7 | 0.46 |
| B8 | 0.66 |
| B9 | 0.53 |

Experiment: Probe fluorescence ratio response to oleic acid relative to ADIFAB2
Format: binding
Conditions: response relative to ADIFAB2
Procedure, shortened: as §1

| Molecule | DR/DR OA |
| --- | --- |
| B1 | 0.30 |
| B2 | 0.33 |
| B3 | 0.34 |
| B4 | 0.43 |
| B5 | 0.43 |
| B6 | 0.24 |
| B7 | 0.34 |
| B8 | 0.55 |
| B9 | 0.36 |

Experiment: Probe fluorescence ratio response to palmitic acid relative to ADIFAB2
Format: binding
Conditions: response relative to ADIFAB2
Procedure, shortened: as §1

| Molecule | DR/DR PA |
| --- | --- |
| B1 | 0.21 |
| B2 | 0.34 |
| B3 | 0.38 |
| B4 | 0.32 |
| B5 | 0.34 |
| B6 | 0.29 |
| B7 | 0.28 |
| B8 | 0.38 |
| B9 | 0.24 |
